Measured values taken from the supplement of paper PMC10724198.
± gives the standard deviation of the averaged measurements.

These sequences were tested on Saccharomyces cerevisiae (assay: protein stability index of tFT-peptide fusion (C-terminal peptide) (PSI (0-1 scale)); higher = more stable (slower turnover)). Details: genetic background: wild type; temperature: 30 C.
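Note: PSI is a weighted mean of sequencing reads over stability bins, variants kept only with over 10 reads, mCherry proximal and sfGFP distal, peptide attached via GGGS linker.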

Sequence | protein stability index
NVLSGIDKRLTI | 0.71 ± 0.053
NVLVRFFSSGVW | 0.85 ± 0.047
NVRCLVELGGEV | 0.714 ± 0.058
NWRCTLGWSWVR | 0.706 ± 0.058
NYAMRGSVRTDK | 0.665 ± 0.028
NYHAIANRILAK | 0.6026 ± 0.004
NYIIRKTKERHK | 0.781 ± 0.11
NYMQVSIKNKKE | 0.641 ± 0.028
NYNNGHNLKKER | 0.634 ± 0.012
NYYLPLESCTIG | 0.664 ± 0.03
PAAFPRPTRHAA | 0.693 ± 0.067
PAASRPPSPSLL | 0.665 ± 0.046
PAAVAQAFPLIT | 0.649 ± 0.05
PACVLVRRGWYL | 0.7277 ± 0.0029
PAGPPHPCPHPS | 0.708 ± 0.05
PAHAPSLSPPPF | 0.697 ± 0.016
PAKTEPGPLNHR | 0.68 ± 0.02
PAPLPPPPPPRP | 0.689 ± 0.015
PAPLSRPLSPTL | 0.6841 ± 0.0055
PAPPLPPPAAPP | 0.576 ± 0.0069
PAPPLPPPPSPY | 0.72 ± 0.11
PAPVFPILTPPY | 0.734 ± 0.059
PARFPPLPFPPI | 0.74 ± 0.035

Sequence | protein stability index
PARPEPPRANWR | 0.647 ± 0.058
PASFAYRTLNMV | 0.661 ± 0.082
PASPLFAPSVVP | 0.747 ± 0.0086
PASPPPRTISSP | 0.704 ± 0.064
PASRLHSPSSPP | 0.703 ± 0.038
PATPPPLPPLSP | 0.701 ± 0.054
PATQTRKETRTP | 0.69 ± 0.059
PATTVAKGSHQF | 0.717 ± 0.026
PAVISLLPVWFT | 0.691 ± 0.015
PAWGEQYYGNVR | 0.69 ± 0.057
PAYTRDIRKPRH | 0.654 ± 0.051
PCAPPTPAPLHP | 0.6687 ± 0.0048
PCDCAHPVLRPM | 0.634 ± 0.069
PCHPRPPPASPP | 0.692 ± 0.096
PCHSPATRTLPC | 0.6824 ± 0.0025
PCLSRFPGSPFL | 0.6896 ± 0.0042
PCPLPSPHPPPR | 0.717 ± 0.046
PCPPHILAPPPS | 0.713 ± 0.0091
PDGFTFVFSPES | 0.648 ± 0.038
PDPARSPLTSSY | 0.6569 ± 0.0024
PDPGPPYPTPTA | 0.708 ± 0.066
PDPPPLLPRLSL | 0.701 ± 0.016
PDPSTRASDRKR | 0.648 ± 0.017

Sequence | protein stability index
PDPSVERFRGLC | 0.758 ± 0.095
PDRGLRLKRILP | 0.5675 ± 0.0017
PDRLPPPLLPPL | 0.718 ± 0.028
PDRYPPPPGRRG | 0.704 ± 0.014
PDSHPPAPPSPP | 0.704 ± 0.031
PEAEPPPPPPPP | 0.552 ± 0.028
PEGPTPPSLKLS | 0.6162 ± 0.0052
PEMCEKRIKTPT | 0.634 ± 0.031
PEQKKRKVKIKK | 0.686 ± 0.16
PERAPASRWTLS | 0.7362 ± 0.0049
PESPLFPPLLPS | 0.6599 ± 0.0018
PESRAESAKPRD | 0.667 ± 0.019
PEVRTNKQHQER | 0.746 ± 0.055
PFAGLFFFFVPF | 0.58 ± 0.033
PFAPFIHNFGCT | 0.713 ± 0.023
PFAYFSRFLYFP | 0.633 ± 0.03
PFGSSPLCGSSF | 0.683 ± 0.032
PFGTFFFPSFLL | 0.683 ± 0.0032
PFIDCEHIRGFN | 0.735 ± 0.046
PFIPPPRFPPPV | 0.835 ± 0.074
PFLIPPRPFSFP | 0.709 ± 0.1
PFLRLLQTVGST | 0.593 ± 0.024
PFLTSPPPLPLH | 0.632 ± 0.031

Sequence | protein stability index
PFMFLSSCSGFF | 0.735 ± 0.019
PFPAPPPPPPPP | 0.678 ± 0.064
PFPLSPPPPPLD | 0.761 ± 0.045
PFPPPPVPHARR | 0.775 ± 0.22
PFPPPTPPPPLP | 0.751 ± 0.077
PFPPRRPSATTL | 0.727 ± 0.045
PFPSFFFCCISL | 0.507 ± 0.0075
PFRPPPLLPFSP | 0.799 ± 0.13
PFSGPVYSHNDV | 0.738 ± 0.08
PFSLIFSFFSEV | 0.7487 ± 0.0047
PFSSPPPLSLPP | 0.7308 ± 0.0011
PGALILSNRFFS | 0.685 ± 0.041
PGAPPPASPPST | 0.714 ± 0.047
PGCNLPLVPPRL | 0.701 ± 0.018
PGFFRLSLFPFA | 0.713 ± 0.0083
PGGLHHGCSTPA | 0.724 ± 0.0087
PGGQGVRTDRPQ | 0.678 ± 0.025
PGGTDGYSGLEK | 0.689 ± 0.011
PGIGMVCAVAEG | 0.687 ± 0.0082
PGLSLPLPPPRP | 0.703 ± 0.035
PGLTAVVYRPAD | 0.724 ± 0.04
PGPHGVVPTGNE | 0.6666 ± 0.0056
PGPPPPPPALLP | 0.658 ± 0.056

Sequence | protein stability index
PGPPSTAPHLPE | 0.659 ± 0.018
PGPPTPPPPLYP | 0.706 ± 0.012
PGPTNSSLTASD | 0.7667 ± 0.0037
PGSCAYHIFRFR | 0.583 ± 0.0062
PGSLPPPPPPPP | 0.716 ± 0.016
PGSLSLSPLLPS | 0.758 ± 0.037
PGTGAASGTGGA | 0.689 ± 0.012
PGTLLHPLSVGR | 0.668 ± 0.019
PGWDSHRKILSQ | 0.68 ± 0.0083
PHADFALFPFSP | 0.785 ± 0.036
PHAERASPDGLS | 0.664 ± 0.063
PHASLAPPLPPP | 0.5801 ± 0.0042
PHCPPPPSLSPP | 0.791 ± 0.094
PHFLNNRNTIRR | 0.714 ± 0.04
PHHAPRPPPFAG | 0.646 ± 0.05
PHLPSSPSPYSP | 0.689 ± 0.0043
PHPAPPPSPSPS | 0.715 ± 0.033
PHPATLPPPAPT | 0.699 ± 0.032
PHPGVPPTFLSL | 0.657 ± 0.11
PHPLPSPSPPPH | 0.69228 ± 0.00045
PHPPPVPAPPPP | 0.663 ± 0.008
PHPPSCPLTPPP | 0.666 ± 0.015
PHPRPPLAPPLT | 0.688 ± 0.038

Sequence | protein stability index
PHRPPPCLPFGS | 0.728 ± 0.039
PHSGVVVRCPSG | 0.704 ± 0.022
PHSPLPAHPPCR | 0.745 ± 0.14
PHSPPSLSPTPP | 0.685 ± 0.06
PHSPSSPTIPSS | 0.7363 ± 0.0069
PHSSPSHRLSLP | 0.722 ± 0.035
PHTGVKRDIENE | 0.693 ± 0.092
PIDYRPEPYALP | 0.775 ± 0.034
PIGFSHISFSPS | 0.645 ± 0.1
PINALLHNKRES | 0.721 ± 0.082
PIPPHGTPPAAY | 0.694 ± 0.036
PIPPPAPPPAPP | 0.6778 ± 0.0036
PIPPPPRACGPS | 0.7 ± 0.02
PIPSPAPLPPRP | 0.675 ± 0.0073
PIRPQSSVSLKQ | 0.64958 ± 0.00064
PIRPSPPVLPPL | 0.647 ± 0.11
PISLFLSSSAPL | 0.729 ± 0.053
PISTHYGSAVFM | 0.692 ± 0.029
PITFPPSLPPPP | 0.666 ± 0.045
PIVLALPTFPPL | 0.716 ± 0.048
PIWRLVMRCCRS | 0.575 ± 0.022
PKKGKKKLREKS | 0.728 ± 0.051
PKKTTIQRDKTN | 0.607 ± 0.027

Sequence | protein stability index
PKNNHTKKKTGQ | 0.677 ± 0.0093
PKPNRAHSTTHR | 0.691 ± 0.008
PKRTHDPAPKTT | 0.70897 ± 0.00058
PKRTTHIGRIHE | 0.6875 ± 0.006
PKSGRAVMQGEG | 0.631 ± 0.071
PKSRTLKDITIF | 0.684 ± 0.024
PLAPPRSPHLPP | 0.673 ± 0.041
PLAPSSHLHPSP | 0.75 ± 0.0015
PLATLIPPLIPS | 0.554 ± 0.084
PLCLPALPPPLP | 0.676 ± 0.097
PLFLLPSSPPAS | 0.757 ± 0.06
PLFLPALPPPLP | 0.687 ± 0.11
PLFPACYFHPFD | 0.746 ± 0.032
PLFYSLCFFCGL | 0.667 ± 0.044
PLGGLTLNIIEC | 0.701 ± 0.0089
PLGPPPPPPLPS | 0.7222 ± 0.0058
PLHHPPSPRLPP | 0.617 ± 0.018
PLHLYPHPPTHS | 0.698 ± 0.078
PLHSPPSRPCQL | 0.691 ± 0.065
PLHVSLVRFGCP | 0.633 ± 0.032
PLHYPTPCHPLP | 0.726 ± 0.052
PLKTDSVPEFTA | 0.5811 ± 0.0033
